Where two headings read alike, the source gives them in different places.
Assays:
[1] = target: T1, trimeric, post-fusion form of sE, the soluble fragment of dengue virus type 2 (S1 strain) envelope glycoprotein E (dengue virus type 2 S1 strain), P12823; assay: fluorescence depolarization, labeled peptide titrated with trimeric sE
[2] = target: T1, trimeric, post-fusion form of sE, the …; assay: fluorescence depolarization; 33nM labelled peptide titrated with dengue sE trimer (x axis µM E)
[3] = target: T1, trimeric, post-fusion form of sE, the …; assay: fluorescence depolarization
[4] = target: T1, trimeric, post-fusion form of sE, the …

Binder | Kd [1] [µM] | EC50 (read off the curve) [2] [µM] | Kd [3] [µM] | EC50 (read off the curve) [4] [µM]
SSIGQMFETTMRGAKRMAILGDTAWDFGSLGGVF (modifications not checked) [fluorescently labeled version of the peptide corresponding to residues 396-429 (stem region) of deng] | 6 | 5 |  | 
AILGDTAWDFGSLGGVFTSIGKALHQVFGAIYGAA (modifications not checked) [stem peptide including residues 413-447 of dengue envelope protein E] |  |  | 4 | 3
